Biological target: the molecule itself
Experiment: phase separation

B1: FUS low complexity N-terminal domain (residues 1-163) (domain or fragment, human, UniProt P35637 1-163, looked up)
chain: MASNDYTQQATQSYGAYPTQPGQGYSQQSSQPYGQQSYSGYSQSTDTSGYGQSSYSSYGQSQNTGYGTQSTPQGYGSTGGYGSSQSSQSSYGQQSSYPGYGQQPAPSSTSGSYGSSSQSSSYGQPQSGSYSQQPSYGGQQQSYGQQQSYNPPQGYGQQNQYNS
B1: binds.

Reference: PMC4609301 (Molecular cell, 2015)
